B2: RVFV glycoprotein Gn head domain (154–469 aa) (domain or fragment)
chain: EDPHLRNRPGKGHNYIDGMTQEDATCKPVTYAGACSSFDVLLEKGKFPLFQSYAHHRTLLEAVHDTIIAKADPPSCDLLSAHGNPCMKEKLVMKTHCPNDYQSAHHLNNDGKMASVKCPPKYELTEDCNFCRQMTGASLKKGSYPLQDLFCQSSEDDGSKLKTKMKGVCEVGVQALKKCDGQLSTAHEVVPFAVFKNSKKVYLDKLDLKTEENLLPDSFVCFEHKGQYKGTMDSGQTKRELKSFDISQCPKIGGHGSKKCTGDAAFCSAYECTAQYANAYCSHANGSGIVQIQVSGVWKKPLCVGYERVVVKRELS

Conditions in all cases: both partners purified
In test [1] the target is B2. As to the kind of experiment: BLI; […]; 300 s association, 300 s dissociation; […], global 1:1 model; Octet RED96. (BLI is a label-free optical method that tracks binding on a fibre tip over time.)
The target in test [2] is T1, LRP1 cluster IV (CL IV, 3332–3779 aa) (human, UniProt Q07954 3332-3779). The description is as above.
T1 sequence (Q07954 3332-3779): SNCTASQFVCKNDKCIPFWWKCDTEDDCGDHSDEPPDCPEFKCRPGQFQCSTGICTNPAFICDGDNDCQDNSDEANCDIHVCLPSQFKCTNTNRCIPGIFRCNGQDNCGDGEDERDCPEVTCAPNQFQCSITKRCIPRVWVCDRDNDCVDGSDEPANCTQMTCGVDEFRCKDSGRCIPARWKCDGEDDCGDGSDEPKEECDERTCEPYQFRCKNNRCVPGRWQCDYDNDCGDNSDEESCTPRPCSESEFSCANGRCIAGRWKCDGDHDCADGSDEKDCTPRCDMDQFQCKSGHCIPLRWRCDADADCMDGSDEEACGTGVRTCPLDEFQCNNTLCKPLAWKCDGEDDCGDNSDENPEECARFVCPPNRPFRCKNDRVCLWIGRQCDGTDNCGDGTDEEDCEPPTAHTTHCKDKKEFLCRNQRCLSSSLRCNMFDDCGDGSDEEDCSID
Test [3] has as its target T2, LRP1 cluster II (CL II, 786–1165 aa) (human, UniProt Q07954 786-1165).
T2 construct: not shown: FLAG or 6 × HIS (same vector as Gn)
T2 sequence: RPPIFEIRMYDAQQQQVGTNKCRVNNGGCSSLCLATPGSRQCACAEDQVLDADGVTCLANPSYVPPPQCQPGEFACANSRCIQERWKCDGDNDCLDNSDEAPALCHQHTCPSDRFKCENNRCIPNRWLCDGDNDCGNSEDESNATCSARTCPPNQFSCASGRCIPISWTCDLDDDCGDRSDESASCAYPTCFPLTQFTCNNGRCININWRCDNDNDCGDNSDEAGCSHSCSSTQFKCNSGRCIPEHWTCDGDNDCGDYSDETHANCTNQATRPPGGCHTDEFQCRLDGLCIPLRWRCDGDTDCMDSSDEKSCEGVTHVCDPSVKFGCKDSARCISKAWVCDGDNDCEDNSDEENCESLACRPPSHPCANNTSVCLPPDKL
The test is described as above.

The target of test [4] is T1, LRP1 cluster IV (CL IV, 3332–3779 aa). As to the kind of experiment: BLI.
Test [5] concerns the target T2, LRP1 cluster II (CL II, 786–1165 aa). The experiment in a line: BLI.

Consider three molecules from paper PMC12839305 (Biomolecules, 2025).

B1: LRP1 CL IV-B, repeats A25–A28 (3492–3649 aa) (domain or fragment)
chain: not shown
What is called Kd is the concentration at which binding is half-saturated. B1 displayed an equilibrium dissociation constant (Kd) in test [1] of 36 nM.
Take B2: the Kd in test [2] came to 56 nM; in test [3], 89 nM; in test [4] it was 120 nM; in test [5], 220 nM.

B3: LRP1 CL IV-A, repeats A21–A24 (3332–3491 aa) (domain or fragment)
chain: not shown
In test [1], B3 had an equilibrium dissociation constant (Kd) of 72 nM.
